Experiments:
[1] = target: monkey Axl receptor expressed on the surface of COS7 cells (African green monkey); experiment: flow cytometry on COS7 cells, goat anti-mouse Alexa 488
[2] = target: T1, human extracellular domain (ECD) of Axl, His-tagged (pCEP[AXL]His6, produced in HEK293E) (human, UniProt P30530 26-451); experiment: SPR (Biacore X), antibody captured on CM5 chip, Axl ECD as analyte, 1:1 Langmuir model
T1 construct: also called human Axl ECD; rhAxl ECD; not shown: His6 tag
T1 sequence: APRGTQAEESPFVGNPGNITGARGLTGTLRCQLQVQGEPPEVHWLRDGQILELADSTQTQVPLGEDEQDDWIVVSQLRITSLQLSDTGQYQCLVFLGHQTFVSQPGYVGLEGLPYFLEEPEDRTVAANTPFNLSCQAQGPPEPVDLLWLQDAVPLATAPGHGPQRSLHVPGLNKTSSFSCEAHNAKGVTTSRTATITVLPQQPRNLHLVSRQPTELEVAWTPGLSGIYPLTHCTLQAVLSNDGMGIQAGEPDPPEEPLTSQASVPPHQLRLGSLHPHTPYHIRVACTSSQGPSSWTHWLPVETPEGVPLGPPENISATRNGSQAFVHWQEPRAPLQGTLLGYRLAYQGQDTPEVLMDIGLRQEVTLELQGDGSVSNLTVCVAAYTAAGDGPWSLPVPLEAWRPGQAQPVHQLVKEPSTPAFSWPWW
Description: Briefly, the experiments were realized using a sensor chip CM5 as the biosensor. Rabbit IgGs were immobilized on the flow cells 1 and 2 (FC 1 and FC2) of a CM5 sensor chip at a level of 9300-10000 response units (RU) using amine coupling chemistry to capture antibodies.
Binding is evaluated using multiple cycles. Each cycle of measure is performed using a flow rate of 30 μl/imin in a HBS-EP buffer. Then the Axl antibody to test is captured on the chip for 1 min on FC2 only to reach a mean capture value of 311.8 RU (SD=5.1 RU) for the 1613F12. The analyte (Axl ECD antigen) is injected starting at 200 nM and using two-fold serial dilutions to measure rough ka and kd in real time.
At the end of each cycle, the surfaces are regenerated by injecting a 10 mM glycine hydrochloride pH1.5 solution to eliminate the antibody-antigen complexes and the capture antibody as well. The considered signal corresponds to the difference of the signals observed between FC1 and FC2 (FC2-FC1). Association rates (ka) and dissociation rates (kd) were calculated using a one-to-one Langmuir binding model. The equilibrium dissociation constant (KD) is determined as the […]. The experimental values were analyzed in the Biaevaluation software version 3.0. A χ2 analysis will be performed to assess the accuracy of the data.

[3] = target: T2, recombinant mouse Axl-Fc (R and D systems, cat No 854-AX/CF) (mouse, UniProt Q00993 19-445); experiment: ELISA on coated rmAxl-Fc, detection with goat anti-mouse IgG-HRP
T2 construct: extracellular domain; Bought protein; also called rmAxl-Fc; murine Axl ECD domain; not shown: Fc portion (coating control with anti-human IgG Fc)
T2 sequence (looked up): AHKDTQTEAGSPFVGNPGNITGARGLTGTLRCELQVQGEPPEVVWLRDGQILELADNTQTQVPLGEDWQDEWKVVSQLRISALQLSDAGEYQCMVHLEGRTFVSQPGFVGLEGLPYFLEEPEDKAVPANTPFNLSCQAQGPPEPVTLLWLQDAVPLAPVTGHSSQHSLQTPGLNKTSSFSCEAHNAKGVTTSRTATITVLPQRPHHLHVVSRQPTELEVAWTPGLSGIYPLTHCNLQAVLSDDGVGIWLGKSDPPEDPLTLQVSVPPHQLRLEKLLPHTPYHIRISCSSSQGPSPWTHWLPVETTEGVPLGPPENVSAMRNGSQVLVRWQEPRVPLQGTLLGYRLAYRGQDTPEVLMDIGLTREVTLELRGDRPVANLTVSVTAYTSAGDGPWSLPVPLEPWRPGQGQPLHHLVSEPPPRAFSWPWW
Description: Briefly, the recombinant mouse Axl-Fc (R and D systems, cat No 854-AX/CF) proteins were coated overnight at 4° C. to Immulon II 96-well plates and, after a 1 h blocking step with a 0.5% gelatine solution, the 1613F12 purified antibody was added for one additional hour at 37° C. at starting concentration of 5 μg/m (3.33 10⁻⁸M). Then ½ serial dilutions were done over 12 columns. Plates were then washed and a goat anti-mouse (Jackson) specific IgG HRP was added for 1 h at 37° C. Reaction development was performed using the TMB substrate solution. […] Coating controls are performed in presence of a goat anti-human IgG Fc polyclonal serum coupled with HRP (Jackson, ref 109-035-098) and/or in presence of a HRP-coupled anti-Histidine antibody (R and D Systems, ref: MAB050H).

[4] = target: T3, recombinant human Axl-Fc (R and D Systems, cat No 154-AL / 154AL/CF) (human, UniProt P30530 26-451); experiment: ELISA on coated rhAxl-Fc, detection with goat anti-mouse IgG-HRP
T3 construct: Bought protein; also called rhAxl-Fc; rh Axl-Fc protein; not shown: human IgG Fc portion (detected with anti-human IgG Fc)
T3 sequence: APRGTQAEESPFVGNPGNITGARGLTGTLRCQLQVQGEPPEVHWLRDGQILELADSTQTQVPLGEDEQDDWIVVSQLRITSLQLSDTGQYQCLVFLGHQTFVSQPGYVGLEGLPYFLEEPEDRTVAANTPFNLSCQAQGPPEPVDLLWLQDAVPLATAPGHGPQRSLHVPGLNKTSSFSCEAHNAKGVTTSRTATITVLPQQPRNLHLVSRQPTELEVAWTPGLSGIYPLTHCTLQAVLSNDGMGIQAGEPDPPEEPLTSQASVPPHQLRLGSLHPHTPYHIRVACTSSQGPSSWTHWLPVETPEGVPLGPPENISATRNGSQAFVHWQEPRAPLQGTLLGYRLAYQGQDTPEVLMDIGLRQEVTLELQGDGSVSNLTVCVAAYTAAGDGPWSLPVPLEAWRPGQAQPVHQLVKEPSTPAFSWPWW
Description: Then ½ serial dilutions were done over 12 columns. Plates were washed and a goat anti-mouse (Jackson) specific IgG-HRP was added for 1 h at 37° C. Reaction development was performed using the TMB substrate solution. […] Coating controls were performed in presence of a goat anti-human IgG Fc polyclonal serum labelled with HRP (Jackson, ref 109-035-098) and/or in presence of a HRP-coupled anti-Histidine antibody (R and D Systems, ref: MAB050H). Results are represented in FIGS. 2A, 2B and 2C, respectively.

B1: 1613F12 antibody (murine form) (antibody, V domains shown)
VH: EVHLQQSGAELVKPGASVKLSCTASGFNIRDTYIHWVKQRPEQGLEWIGRLDPANGHTKYGPNFQGRATMTSDTSSNTAYLQLSSLTSEDTAVYYCARGAYYYGSSGLFYFDYWGQGTTLSVSS
VL: DVQITQSPSYLATSPGETITINCRASKSISKYLAWYQEKPGKTNKLLIYSGSTLQSGVPSRFSGSGSGTDFTLTISSLEPEDFAMYFCQQHHEYPLTFGAGTELELK
notes: Whole murine monoclonal antibody purified from a hybridoma; a murine IgG1 (9G4) serves as its isotype control; also called m1613F12; monoclonal antibody 1613F12 derived from the hybridoma I-4505
EC50 (read off the curve) [1]: 1 nM | Kd [2]: 2.29 nM | koff [2]: 0.000242 s⁻¹ | kon [2]: 106000 M⁻¹ s⁻¹ | binding result [3]: no binding (tested: log -7.5 M) | EC50 (read off the curve) [4]: ~1 nM
